Assay results published in patent US20250206828A1, “ANTI-ADENOSINE RECEPTOR (A2aR) ANTIBODIES AND THE USE THEREOF” (Adept Therapeutics Inc., priority 2022, published 2025).

Assays:
Type in all cases: cell-based
[1] = biological target: human A2aR (Homo sapiens, UniProt P29274); experiment: In vitro blocking activity of purified humanized anti-A2aR antibodies and SMIs (cAMP-Glo, adenosine or NECA); settings: purified antibodies
Description: The activity of A2aR is mediated by Gas protein which activates adenylyl cyclase, resulting in the synthesis of intracellular cAMP. The level of cAMP correlates with the respective adenosine (agonist) level. cAMP can be detected using a variety of commercial cAMP assay kit.
Briefly, clear flat bottom 96 well tissue culture plate (Fisher Scientific) was coated with 50 μl per well of 50 µg/ml poly-D-lysine (Gibco, Cat. A3890401) solution at 4° C. overnight. After 3 washes with sterile endotoxin free water, the coated culture plate was left uncovered in a biosafety cabinet to dry. Freshly thawed A2aR-overexpressing HEK293 cell (BPS Bioscience) were seeded on poly-D-lysine coated plates at 10^4/well in 100 μl culture medium for 24 hours in 37° C., 5% CO2 incubator. After wash with warmed PBS once, one hundred microliters (100 μl) starvation medium (MEM (Hyclone Cat. SH30024.01)+2% charcoal stripped serum (Thermo Fisher, Cat. A3382101)+1% Penicillin/Streptomycin) were added for overnight culture in an incubator at 37° C. and 5% CO2. […] Plates were read to obtain Relative Light Unit (RLU) on SpectraMax 5 reader (Molecular Device). Data were analyzed using Prism software.

[2] = test system: human PBMCs (CD4 T, CD8 T, NK cells); experiment: Restoration of IFN-γ and IL-2 production of NECA-suppressed T cells and NK cells (intracellular cytokine staining); settings: anti-CD3/28 Dynabeads activated, 0.1 μM NECA; for restoring IFN-γ production in human CD4 T suppressed by NECA (FIG. 5A): compared with AB928, AZD4635 and CPI-444; for restoring IL-2 production in human CD4 T suppressed by NECA (FIG. 5B): compared with AZD4635 and CPI-444
[3] = test system: human PBMCs (CD4 T, CD8 T, NK cells); experiment: as above; settings: for % of cells IFNγ+, CD4 T cells / % of cells IFNγ+, CD8 T cells / % of cells IFNγ+, NK cells / % of cells IL-2+, CD4 T cells / % of cells IL-2+, CD8 T cells: NECA, test substance 1 μg/ml; for restored production of IFN-γ and IL-2 by NECA-suppressed CD8 T cell: compared with AB928, CPI-444 and AZD4635; for restored production of IFN-γ and IL-2 by NECA-suppressed NK cells: compared with the tested small molecule inhibitors
Description: Two hundred thousand (2×10^5) human peripheral blood mononuclear cells (PBMCs) human PBMC in complete IMDM medium were aliquoted into each well in a 96-well plate and the cells in the 96-well plate were pre-incubated with antibodies or small molecule inhibitors at indicated concentration for 90 minutes, followed by addition of T cell activator anti-CD3/28 dynabeads (Gibco, Cat #11132D) at ratio of 1:4 (Beads: PBMC, v/v) and NECA (DiscoverX, Cat #92-1191, final concentration […]). Cells were cultured in an incubator at 37° C., 5% CO2 for 24 hours. Cells were then collected and stimulated with anti-CD3/28 dynabeads in the presence of GolgiPlug™ Protein Transport Inhibitor (BD Biosciences, Cat #555028) according to manufacturer's manual for 4 hours. Thereafter, cells were incubated with human TruStain FcX block (Biolegend, Cat #422302) and True-Stain monocyte blocker (Biolegend, Cat #426103) for 15 minutes according the manufacturer's manual, and cells were then stained with surface markers PE-anti-CD4 (Biolegend, Cat #300550), PerCP-cy5.5-anti-CD8 (Biolegend, Cat #301032), APC/cy7-anti-CD3 (Biolegend, Cat #300426) and PE/cy7-anti-CD56 (Biolegend, Cat #362509), PE/cy7-anti-CD56 (Biolegend, Cat #362509), BV711-anti-CD25 (Biolegend, Cat #302636) and BV605-anti-CD69 (Biolegend, Cat #31938 After wash with FACS buffer, cells were stained with BV421-anti-IFN-γ (BD Bioscience, Cat #562988) and APC anti-IL-2 (BD Bioscience, cat #551383) using intracellular cytokine staining kit (BD Biosciences, cat #555028) following manufacturer's instruction. Stained samples were analyzed on FACSAria III machine. Data were analyzed using Flowjo software.

human A2aR, sequence (P29274 whole entry): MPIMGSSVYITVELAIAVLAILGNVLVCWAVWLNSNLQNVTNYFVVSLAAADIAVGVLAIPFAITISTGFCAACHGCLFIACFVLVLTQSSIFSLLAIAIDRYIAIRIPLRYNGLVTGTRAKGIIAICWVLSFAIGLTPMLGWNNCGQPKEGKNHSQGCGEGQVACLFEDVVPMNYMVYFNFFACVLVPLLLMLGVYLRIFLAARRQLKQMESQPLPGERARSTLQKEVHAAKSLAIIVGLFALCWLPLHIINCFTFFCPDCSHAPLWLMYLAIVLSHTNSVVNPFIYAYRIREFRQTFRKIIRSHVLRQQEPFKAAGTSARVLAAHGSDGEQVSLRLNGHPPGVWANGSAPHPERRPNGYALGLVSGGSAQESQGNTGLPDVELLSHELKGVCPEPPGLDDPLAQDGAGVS

Row | Molecule | blocking of the activities of human A2aR expressed on cell surface (RLU, FIG. 1A, 1B) [1] | restoring IFN-γ production in human CD4 T suppressed by NECA (FIG. 5A) ([2]; listed as Hu3F6-VH3/Hu3F6-VL5) | restoring IFN-γ production in human CD4 T suppressed by NECA (FIG. 5A) ([2]; listed as Hu3F6-VH3/VL5) | restoring IL-2 production in human CD4 T suppressed by NECA (FIG. 5B) [2] | % of cells IFNγ+, CD4 T cells [3] [%] | % of cells IFNγ+, CD8 T cells [3] [%] | % of cells IFNγ+, NK cells [3] [%] | % of cells IL-2+, CD4 T cells [3] [%] | % of cells IL-2+, CD8 T cells [3] [%] | restored production of IFN-γ and IL-2 by NECA-suppressed CD8 T cell [3] | restored production of IFN-γ and IL-2 by NECA-suppressed NK cells [3] | restoring IFN-γ production in human CD4 T suppressed by NECA (FIG. 5A) ([2]; listed as Hu3F6-VH5/Hu3F6-VL5) | restoring IFN-γ production in human CD4 T suppressed by NECA (FIG. 5A) ([2]; listed as Hu3F6-VH5/VL5)
1 | Hu3F6-H3/Hu3F6-L5: humanized anti-A2aR IgG1 FES antibody; HCVR SEQ ID NO:60, LCVR SEQ ID NO:80 (antibody, V domains shown) VH: EVQLVQSGAEVKKPGASVKVSCKTSGFAFTSYWMNWVRQAPGQGLEWIGRIDPSDSEAHYHHKFWGRATLTVDTSSSTVYMELSSLRSEDTAVYYCLRSLYGKGDYWGHGTTVTVSS VL: DVVMTQTPLSLSVTPGQPASISCRSSQSLVHRNGNTYLEWYLQKPGQSPQLLIYKVSNRFSGVPDRFSGSGSGTDFTLKISRVEAEDVGVYYCYQGSHVPLTFGGGTKVEIK | blocked the activities of human A2aR expressed on cell surface | higher potency in restoring IFN-γ production | can restore the intracellular IFN gamma and IL2 production | can restore the intracellular IFN gamma and IL2 production | 4.35 | 14.1 | 17.8 | 13.4 | 3.29 | restored production of IFN-γ and IL-2 by NECA-suppressed CD8 T cell, with higher potency | restored production of IFN-γ and IL-2 by NECA-suppressed NK cells, with a potency higher | – | –
2 | Hu3F6-H5/Hu3F6-L5: humanized anti-A2aR IgG1 FES antibody; HCVR SEQ ID NO:62, LCVR SEQ ID NO:80 (antibody, V domains shown) VH: EVQLVQSGAEVKKPGASVKVSCKTSGFAFTSYWMNWVRQAPGQGLEWIGRIDPSDSEAHYAHKFWGRATLTVDKSSSTVYMELSSLRSEDTAVYYCLRSLYGKGDYWGHGTTVTVSS VL: DVVMTQTPLSLSVTPGQPASISCRSSQSLVHRNGNTYLEWYLQKPGQSPQLLIYKVSNRFSGVPDRFSGSGSGTDFTLKISRVEAEDVGVYYCYQGSHVPLTFGGGTKVEIK | blocked the activities of human A2aR expressed on cell surface | – | – | can restore the intracellular IFN gamma and IL2 production | 4.29 | 14.8 | 16.6 | 13.2 | 2.98 | restored production of IFN-γ and IL-2 by NECA-suppressed CD8 T cell, with higher potency | restored production of IFN-γ and IL-2 by NECA-suppressed NK cells, with a potency higher | higher potency in restoring IFN-γ production | can restore the intracellular IFN gamma and IL2 production
